Ends that are not written are not given here.

For the assay, the target named is IgE of patient serum 3 (human). The assay is described as follows: ELISA: serum IgE captured on an anti-human IgE coated plate, epitope 2 peptide (FITC-tagged) titrated, fluorescence (RFU).

Molecule ERDPYSPSQDPYSPS (also: FITC tag, site not given here) [FITC-tagged epitope 2 peptide of Ara h 2] came in with a 50% effective concentration (EC50 (read off the curve)) of 10 µM.
